Reference: PMC10704376, “tRNA m^1G9 modification depends on substrate-specific RNA conformational changes induced by the methyltransferase Trm10” (The Journal of Biological Chemistry, 2023)
pKd: −log10 of the molar value. Structures can show the parent of a compound that is named as a salt.

Assays:
Trm10 = target: T1, Trm10 (Saccharomyces cerevisiae, UniProt Q12400); assay: electrospray mass spectrometry of RNase T1 fragments (+[…] Da adduct); type: biochemical; details: cosubstrate with tRNA-Gly-GCC; 1 h, 37 °C; covalent to tRNA G9, not to the enzyme
T1 construct: full-length, N-terminal 6xHis tag, plasmid pJEJ12-3, expressed in E. coli BL21(DE3) pLysS; monomer (printed PDB 4JWJ covers the C-terminal domain only)
T1 sequence (Q12400 1-293): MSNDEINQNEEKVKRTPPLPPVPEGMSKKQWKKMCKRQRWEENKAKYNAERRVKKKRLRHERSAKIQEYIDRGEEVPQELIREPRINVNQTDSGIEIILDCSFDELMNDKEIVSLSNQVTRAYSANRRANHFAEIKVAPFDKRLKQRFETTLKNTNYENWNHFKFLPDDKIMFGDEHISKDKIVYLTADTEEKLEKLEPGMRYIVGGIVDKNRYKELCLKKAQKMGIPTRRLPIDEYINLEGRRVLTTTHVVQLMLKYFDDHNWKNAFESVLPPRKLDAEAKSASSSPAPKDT

[1] = system: Trm10 (wild type) (Saccharomyces cerevisiae); assay: fluorescence anisotropy; details: unmodified transcript, FA: 15 nM labeled tRNA, 50-300 nM enzyme, 30 min at room temperature, buffer as in ref 17 (not given), EMSA: 4 uM tRNA, 0-10 uM protein, 30 C 30 min
[2] = system: Trm10-KRR (Saccharomyces cerevisiae); assay: fluorescence anisotropy; details: unmodified transcript, FA: 15 nM labeled tRNA, 50-300 nM enzyme, 30 min at room temperature, buffer as in ref 17 (not given), EMSA: 4 uM tRNA, 0-10 uM protein, 30 C 30 min

Compound	electrospray mass spectrometry of RNase T1 fragments (+393 Da adduct) (Trm10)	pKd ([1]; separate data set, differs from Fig 4C)	pKd [1]	pKd [2]
Nc1ncnc2c1ncn2[C@@H]1O[C@H](CN(CCI)CC[C@H](N)C(=O)O)[C@@H](O)[C@H]1O [NM6, 5′-(diaminobutyric acid)-N-iodoethyl-5′-deoxyadenosine ammoniumhydrochloride]	NM6 was confirmed to be a suitable cosubstrate for tRNA modification by Trm10 using mass spectrometry			
tRNAGly-GCC, 5'-fluorescein transcript		7.00	7.70	7.47
tRNALeu-CAA, FA transcript			7.42	
tRNAVal-UAC, FA transcript			7.02	
